These results are taken from patent US20230374151A1 (GlaxoSmithKline, published 2023).

Assay [1] concerns the target T1, TnMUC1 (aberrantly glycosylated MUC1) on tumour cells (human, UniProt P15941 24-1255, truncated Tn / sialyl-Tn O-glycans on Ser/Thr (aberrant glycosylation)).
T1 construct: whole, on cells; also called Tn/STnMUC-1; TnMUC1-positive MDA-MB-468 cells
Description: flow cytometry on TnMUC1-positive Jurkat cells, His-tagged scFv pre-complexed with anti-His-PE, n=1 representative.

Assay [2] has as its target T1, TnMUC1 (aberrantly glycosylated MUC1) …. Kind of assay: flow cytometry on MDA-MB-468 cells, scFv pre-complexed with anti-His-PE; experiment 75-14. As for the experimental part: (§1) Cells were detached and cells were re-suspended in appropriate cell culture media or transferred to Falcon tube. A sample of each cell suspension was then diluted 1:5 with DPBS (to give a final volume of 0.5 mL) and the number of viable cells per mL (based on trypan blue exclusion) were determined for each cell suspension using the Vi-CELL XR Cell Viability Analyser (Default cell type setting used). Cell suspensions were then diluted in appropriate cell culture media and seeded into fresh cell culture flasks at a density of 6.25×10⁴ viable cells per cm². Cells were incubated in a humidified incubator at 37° C. with 5% CO₂ for 48 hours (or until required). On the day of assay, cells were detached from flasks, resuspended in appropriate cell culture media (if appropriate) and the number of viable cells per mL counted as described previously. Cell suspensions were then centrifuged at 500×g for 5 minutes before resuspending cell pellets in FACS Buffer at a density of 4×10⁶ viable cells per mL.
(§2) scFv proteins were diluted to 62.5 nM in DPBS and dispensed into row A of a 96-well V-bottom plate before performing a 1:4 serial dilution in FACS Buffer down the plate to give 25 μL (final volume) per well (FACS Buffer in row H only). […]

The target is the same in assay [3]. Kind of assay: flow cytometry on MDA-MB-468 cells, scFv pre-complexed with anti-His-PE; experiment 75-13. As for the experimental part: as §1, §2
In general terms: Flow cytometry measures light scatter and fluorescence of single cells or particles in a stream.

Assay [4] shares this target. Kind of assay: flow cytometry on MDA-MB-468 cells, scFv pre-complexed with anti-His-PE; mean. As for the experimental part: as §1, §2

T1 sequence (P15941 24-1255): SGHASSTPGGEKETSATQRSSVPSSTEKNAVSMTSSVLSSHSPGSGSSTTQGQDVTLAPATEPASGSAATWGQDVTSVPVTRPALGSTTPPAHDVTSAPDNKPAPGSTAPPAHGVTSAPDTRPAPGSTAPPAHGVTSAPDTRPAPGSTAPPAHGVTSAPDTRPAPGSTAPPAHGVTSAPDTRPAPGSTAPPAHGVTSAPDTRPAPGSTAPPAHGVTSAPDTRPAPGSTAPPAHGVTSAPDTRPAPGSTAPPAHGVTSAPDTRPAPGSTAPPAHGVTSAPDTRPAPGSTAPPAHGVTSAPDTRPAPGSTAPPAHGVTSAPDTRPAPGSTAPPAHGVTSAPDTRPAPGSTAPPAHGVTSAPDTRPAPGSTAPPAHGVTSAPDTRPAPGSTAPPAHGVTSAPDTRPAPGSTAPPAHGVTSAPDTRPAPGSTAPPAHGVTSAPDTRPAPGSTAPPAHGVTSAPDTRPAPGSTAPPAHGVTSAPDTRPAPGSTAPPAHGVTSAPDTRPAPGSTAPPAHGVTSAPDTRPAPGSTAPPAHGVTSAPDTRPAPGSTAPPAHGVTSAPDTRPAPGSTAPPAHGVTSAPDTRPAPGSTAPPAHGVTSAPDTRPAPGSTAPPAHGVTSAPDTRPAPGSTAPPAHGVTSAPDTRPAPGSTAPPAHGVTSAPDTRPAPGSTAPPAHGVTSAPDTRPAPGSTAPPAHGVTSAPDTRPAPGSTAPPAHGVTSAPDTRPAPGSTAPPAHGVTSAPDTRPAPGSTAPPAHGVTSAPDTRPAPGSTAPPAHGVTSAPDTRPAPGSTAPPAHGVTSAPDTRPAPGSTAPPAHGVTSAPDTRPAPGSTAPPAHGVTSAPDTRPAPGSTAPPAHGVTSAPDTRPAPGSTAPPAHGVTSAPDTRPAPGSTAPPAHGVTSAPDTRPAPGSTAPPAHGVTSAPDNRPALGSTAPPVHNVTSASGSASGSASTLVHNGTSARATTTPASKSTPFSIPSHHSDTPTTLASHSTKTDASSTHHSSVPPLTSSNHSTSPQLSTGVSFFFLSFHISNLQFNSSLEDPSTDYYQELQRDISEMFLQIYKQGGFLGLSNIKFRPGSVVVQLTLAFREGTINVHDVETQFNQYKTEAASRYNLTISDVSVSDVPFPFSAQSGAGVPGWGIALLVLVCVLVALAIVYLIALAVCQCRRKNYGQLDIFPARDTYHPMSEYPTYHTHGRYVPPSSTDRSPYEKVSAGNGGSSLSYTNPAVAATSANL

B1: humanised anti-TnMUC1 scFv protein 9P1 (88A), VL-VH humanised control (scFv)
scFv: DIVMTQSPDSLAVSLGERATINCKSSQSLLNSGDQKNYLTWYQQKPGQPPKLLIYWASTRESGVPDRFSGSGSGTDFTLTISSLQAEDVAVYYCQNDYSYPLTFGQGTKVEIKGGGGSGGGGSGGGGSGGGGSQVQLVQSGAEVKKTGSSVKVSCKASGYTFTDHAIHWVRQAPGQALEWMGHFSPGNTDIKYNDKFKGRVTLTVDRSMSTAYMELSSLRSEDTAMYYCKTSTFFFDYWGQGTMVTVSSAAAHHHHHH
notes: Control scFv designed from a humanised antibody of WO2015/159076 (10D2 is said to come from Ab2, so 10D1 by implication from Ab1); Neat supernatant of construct 10D1 in the Octet assay; purified protein 9P1 in Biacore and flow cytometry; also called 10D1
Turning to B1, the concentration giving a half-maximal response (EC50 (read off the curve)) in assay [1] was ~6 nM. Besides, the EC50 in assay [2] turned out to be 3.18 nM; in assay [3] it was 3 nM; in assay [4], 3.09 nM. For the same molecule, the pEC50 in assay [2] is 8.5; in assay [3], 8.52; in assay [4], 8.51.

As usually defined, the EC50 (read off the curve) is the concentration that produces a half-maximal response. What is called EC50 is the concentration that produces a half-maximal response. High values mean a less potent agent, low ones a more potent agent. In general, pEC50 refers to the negative decadic logarithm of the EC50, by convention in mol/L. Low readings indicate a high EC50, high ones a low EC50.
